# Source: PMC5306355, “Clustered Genes Encoding 2-Keto-L-Gulonate Reductase and L-Idonate 5-Dehydrogenase in the Novel Fungal D-Glucuronic Acid Pathway” (Frontiers in Microbiology, 2017)
# B1: GluD (Aspergillus niger) (protein)
# chain: MPAALLIGAITHSMPEWNDLSSILTLKEFPSGTREDFIRNCRDGQYDDVVAIYRSNTSTKFTGPFDAELLSFLPSSLKYIAHNGAGYDNIDVAACTKKGIAVSSTPVAVNNATADVAIFLMIGALRQAYIPVTSLREGKFLGQTGLGHDPQNKVLGILGMGGIGREVARRARAFGMTIQYHNRSRLSPELEDGATYVSFDELLANSDVLSLNLALNASTRHIIGKTEFQKMKDGVIIVNTARGALIDEKALVEALESGKVWSAGLDVYENEPAIEPGLVNNPRVMLLPHIGTMTYETQREMELLVLNNLRSGVETGKMITLVPEQKDVFGK
# Legend:
# Type in all cases: biochemical, Aspergillus niger
# [1] = tested on: GluE; test: NADH oxidation followed at […] nm; details: 400 μM NADH; 50 mM Tris pH 7
# [2] = tested on: GluE; test: NADH formation followed at […] nm; details: 400 μM NAD+; 50 mM Tris pH 8
# [3] = substrate: O=C(O)[C@H](O)[C@@H](O)[C@H](O)[C@@H](O)CO; test: purified protein; details: NADP+ as co-substrate (Methods print 400 μM NAD+), 50 mM Tris pH 8
# [4] = substrate: O=C(O)C(=O)[C@@H](O)[C@H](O)[C@@H](O)CO; test: purified protein; details: NADPH as co-substrate (Methods print 400 μM NADH), 50 mM Tris pH 7
molecule,measurement,setting,value
O=C(CO)[C@@H](O)[C@H](O)[C@@H](O)C(=O)O [5-keto-D-gluconate],Km,[1],8.4 ± 0.1 mM
O=C(O)[C@H](O)[C@@H](O)[C@H](O)[C@@H](O)CO [L-idonate],Km,[2],30.9 ± 1.5 mM
B1,Km,[3],12.6 ± 0.8 mM
same,Vmax,[3],1.7 µmol/min/mg
same,kcat,[3],1.1 s⁻¹
same,Km,[4],25.3 ± 1.2 mM
same,Vmax,[4],34.9 µmol/min/mg
same,kcat,[4],21.4 ± 0.3 s⁻¹
